According to the RNAGym collection of RNA variant scans (doi:10.7554/elife.80360):

B1: Hairpin Ribozyme (parent)
chain: GUCCUCUUUCACGUGCGCGUGAAAGAGAGAAGUGAACCAGAGAAACACACGUUGUGGUAUAUUACCUGGUA

Variants of: B1
Assay: self-cleavage, relative activity (ratio to wild type); higher = more cleavage; co-transcriptional

Variant | self-cleavage
GUUCUCUUUCACGUGCGCGUGAAAGAGAGAAGUGAACCAGAGAAACACACGUUGUGGUGUAUUACCUGGUA [C3U A59G] | 0.0802
GUGCUCUUUCACGUGCGCGUGAAAGAGAGAAGUGAACCAGAGAAACACACGUUGUGGUAUAAUACCUGGUA [C3G U62A] | 0.107
GUGCUCUUUCACGUGCGCGUGAAAGAGAGAAGUGAACCAGAGAAACACACGUUGUGGUAUAGUACCUGGUA [C3G U62G] | 0.128
GUUCUCUUUCACGUGCGCGUGAAAGAGAGAAGUGACCCAGAGAAACACACGUUGUGGUAUAUUACCUGGUA [C3U A36C] | 0.369
GUUCUCUUUCACGUGCGCGUGAAAGAGAGAAGUGAACCAGAGACACACACGUUGUGGUAUAUUACCUGGUA [C3U A44C] | 0.0442
GUUCUCUUUCACGUGCGCGUGAAAGAGAGGAGUGAACCAGAGAAACACACGUUGUGGUAUAUUACCUGGUA [C3U A30G] | 0.104
GUUCUCUUUCACGUGCGCGUGAAAGAGAGUAGUGAACCAGAGAAACACACGUUGUGGUAUAUUACCUGGUA [C3U A30U] | 0.0886
GUUCUCUUUCACGUGCGCGUGAAAGAGAGAAGUGAACCUGAGAAACACACGUUGUGGUAUAUUACCUGGUA [C3U A39U] | 0.253
GUUCUCUUUCACGUGCGCGUGAAAGAGAGAAGUGAACCCGAGAAACACACGUUGUGGUAUAUUACCUGGUA [C3U A39C] | 0.199
GUUCUCUUUCACGUGCGCGUGAAAGAGAGAAGUGAACCGGAGAAACACACGUUGUGGUAUAUUACCUGGUA [C3U A39G] | 0.122
GUUCUCUUUCACGUGCGCGUGAAAGAGAGAAGUGAACCAGAGAAACACCCGUUGUGGUAUAUUACCUGGUA [C3U A49C] | 0.112
GUUCUCUUUCACGUGCGCGUGAAAGAGAGAAGUGAACCAGAGAAACACGCGUUGUGGUAUAUUACCUGGUA [C3U A49G] | 0.409
GUUCUCUUUCACGUGCGCGUGAAAGAGAGAAGUGAACCAGAGAAACACACGUUGUGGUAUAUUGCCUGGUA [C3U A64G] | 0.212
GUGCUCUUUCACGUGCGCGUGAAAGAGAGAAGUGAACCAGAGAAACACACGUUGUGGUACAUUACCUGGUA [C3G U60C] | 0.314
GUUCUCUUUCACGUGCGCGUGAAAGAGAGAAGUGAACCAGAGAAACACACGUUGUGGUAUCUUACCUGGUA [C3U A61C] | 0.164
GUUCUCUUUCACGUGCGCGUGAAAGAGAGAAGUGAACCAGAGAAACACACGUUGUGGUAUUUUACCUGGUA [C3U A61U] | 0.227
GUUCUCUUUCACGUGCGCGUGAAAGAGAGAAGUGAACCAGAGAAACACACGUUGUGGUAUGUUACCUGGUA [C3U A61G] | 0.117
GUUCUCUUUCACGUGCGCGUGAAAGAGAGAAGUGAACCAGAGAAUCACACGUUGUGGUAUAUUACCUGGUA [C3U A45U] | 0.159
GUUCUGUUUCACGUGCGCGUGAAAGAGAGAAGUGAACCAGAGAAACACACGUUGUGGUAUAUUACCUGGUA [C3U C6G] | 0.288

Variant | self-cleavage
GUUCUCUUUCAAGUGCGCGUGAAAGAGAGAAGUGAACCAGAGAAACACACGUUGUGGUAUAUUACCUGGUA [C3U C12A] | 0.546
GUUCUCUUUCAGGUGCGCGUGAAAGAGAGAAGUGAACCAGAGAAACACACGUUGUGGUAUAUUACCUGGUA [C3U C12G] | 0.471
GUUCUCUUUCACGUGCGCGUGAAAGAGAGAAGUGAACCAGGGAAACACACGUUGUGGUAUAUUACCUGGUA [C3U A41G] | 0.643
GUUCUCUUUCACGUGCGCGUGAAAGAGAGAAGUGAACCAGCGAAACACACGUUGUGGUAUAUUACCUGGUA [C3U A41C] | 0.983
GUUCUCUUUCACGUGCGCGUGAAAGCGAGAAGUGAACCAGAGAAACACACGUUGUGGUAUAUUACCUGGUA [C3U A26C] | 0.314
GUUCUCUUUCACGUGCGCGUGAAAGAGAGAAGUGAACCAGAGUAACACACGUUGUGGUAUAUUACCUGGUA [C3U A43U] | 0.207
GUGCUCUUUCACGUGCGCGUGAAAGAGAGAAGUGAACCAGAGAAACACACGUUGUGGUAUAUUACCUGGAA [C3G U70A] | 0.252
GUGCUCUUUCACGUGCGCGUGAAAGAGAGAAGUGAACCAGAGAAACACACGUUGUGGUAUAUCACCUGGUA [C3G U63C] | 0.164
GUGCUCUUUCACGUGCGCGUGAAAGAGAGAAGUGAACCAGAGAAACACACGUUGAGGUAUAUUACCUGGUA [C3G U55A] | 0.0814
GUUCUCUUUCCCGUGCGCGUGAAAGAGAGAAGUGAACCAGAGAAACACACGUUGUGGUAUAUUACCUGGUA [C3U A11C] | 0.402
GUUCUCUUUCGCGUGCGCGUGAAAGAGAGAAGUGAACCAGAGAAACACACGUUGUGGUAUAUUACCUGGUA [C3U A11G] | 0.338
GUUCUCUUUCACGUGCGCGUGAAAGAGAGAGGUGAACCAGAGAAACACACGUUGUGGUAUAUUACCUGGUA [C3U A31G] | 0.296
GUUCUCUUUCACGUGCGCGUGAAAGAGAGACGUGAACCAGAGAAACACACGUUGUGGUAUAUUACCUGGUA [C3U A31C] | 0.267
GUGCUCUUUCACGUGCGCGUGAAAGAGAGAAGUGAACCAGAGAAACACACGUUGUGGUAUAUUACCGGGUA [C3G U67G] | 0.102
GUGCUCUUUCACGUGCGCGUGAAAGAGAGAAGUGAACCAGAGAAACACACGUUGUGGUAUAUUACCCGGUA [C3G U67C] | 0.104
GUUAUCUUUCACGUGCGCGUGAAAGAGAGAAGUGAACCAGAGAAACACACGUUGUGGUAUAUUACCUGGUA [C3U C4A] | 0.0854
GUUUUCUUUCACGUGCGCGUGAAAGAGAGAAGUGAACCAGAGAAACACACGUUGUGGUAUAUUACCUGGUA [C3U C4U] | 0.39
GUUCUCUUUCACGUGCGCGUGACAGAGAGAAGUGAACCAGAGAAACACACGUUGUGGUAUAUUACCUGGUA [C3U A23C] | 0.408
GUUCUCUUUCACGUGCGCGUGUAAGAGAGAAGUGAACCAGAGAAACACACGUUGUGGUAUAUUACCUGGUA [C3U A22U] | 0.395
